Source: publication PMC4057782, “tRNA synthetase counteracts c-Myc to develop functional vasculature”

What was measured:
SerRS delta V2-G14 = SerRS delta V2-G14 (Homo sapiens, UniProt P49591 1-514, del2-14); test: EMSA; binding abolished; EMSA: 20 mM Tris-HCl pH 8.0, 60 mM KCl, 5 mM MgCl2, 0.1 mg/ml BSA, 10 ng/ul poly(dG-dC), 1 mM DTT, 30 min, room temperature; SPR: 10 mM HEPES pH 7.4, 150 mM NaCl, 0.005% P-20; footprint: 20 mM HEPES pH 7.9, 120 mM KCl, 8 mM MgCl2, 0.2 mM EDTA, 0.5 mM DTT, 0.2 mg/ml BSA, 10 ug/ml poly(dG-dC), 5% glycerol, room temperature; settings: protein: recombinant; chain copies: 2; label: 5' 32P
Sequence of SerRS delta V2-G14 (P49591 other isoform, or with tags, fused parts or gaps del2-14 | mutant): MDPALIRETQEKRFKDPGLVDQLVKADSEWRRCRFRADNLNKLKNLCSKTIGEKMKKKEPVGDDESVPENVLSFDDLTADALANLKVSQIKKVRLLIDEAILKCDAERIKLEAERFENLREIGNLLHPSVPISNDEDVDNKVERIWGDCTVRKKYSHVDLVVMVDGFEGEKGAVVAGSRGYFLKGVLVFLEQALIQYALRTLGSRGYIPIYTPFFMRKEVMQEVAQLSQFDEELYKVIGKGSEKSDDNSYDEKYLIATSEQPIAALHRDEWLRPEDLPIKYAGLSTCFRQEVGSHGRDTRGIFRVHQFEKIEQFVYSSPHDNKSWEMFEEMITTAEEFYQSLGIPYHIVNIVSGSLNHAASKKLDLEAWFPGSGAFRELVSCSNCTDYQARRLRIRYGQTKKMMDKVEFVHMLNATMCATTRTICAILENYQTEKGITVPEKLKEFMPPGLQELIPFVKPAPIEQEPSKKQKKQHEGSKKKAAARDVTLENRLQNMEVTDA

SerRS delta T413-V420 = SerRS delta T413-V420 (Homo sapiens, UniProt P49591 1-514, del413-420); test: as above; settings: protein: recombinant; chain copies: 2; label: 5' 32P
Sequence of SerRS delta T413-V420 (P49591 other isoform, or with tags, fused parts or gaps del413-420 | mutant): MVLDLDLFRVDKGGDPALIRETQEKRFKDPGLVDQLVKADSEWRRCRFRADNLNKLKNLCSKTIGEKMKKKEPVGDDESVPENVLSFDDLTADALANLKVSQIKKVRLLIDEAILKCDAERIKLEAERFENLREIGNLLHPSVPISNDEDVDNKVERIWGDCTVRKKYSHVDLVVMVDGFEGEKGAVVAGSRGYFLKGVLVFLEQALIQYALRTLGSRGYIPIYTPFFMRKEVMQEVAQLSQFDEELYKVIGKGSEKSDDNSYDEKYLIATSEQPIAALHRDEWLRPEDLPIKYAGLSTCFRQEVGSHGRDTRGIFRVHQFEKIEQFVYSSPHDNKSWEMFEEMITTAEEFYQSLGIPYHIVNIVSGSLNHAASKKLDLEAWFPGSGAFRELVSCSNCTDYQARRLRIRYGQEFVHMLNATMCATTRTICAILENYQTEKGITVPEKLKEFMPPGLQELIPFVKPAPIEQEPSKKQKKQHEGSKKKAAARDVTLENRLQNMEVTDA

B1: VEGFA promoter 27-bp (-62 to -36) (dsDNA)
DNA 1: GGCGGGGCGGAGCCATGCGCCCCCCCC
DNA 2: GGGGGGGGCGCATGGCTCCGCCCCGCC
binding result (SerRS delta V2-G14): no binding
binding result (SerRS delta T413-V420): no binding
